Experimental data: the DeepSol protein solubility set

Test: soluble on expression in E. coli; label from the status in PepcDB or PDB records

Row | Sequence | soluble on expression in E. coli
1 | MGSDKIHHHHHHMTENFWRELPRPFFVLAPMEDVTDVVFRHVVSEAGRPDVFFTEFTNSESYCHPDGKDSVRGRLTFTEDEQPIVAHIWGDKPENFRKMSIGMAELGFKGLDINMGCPVPNVAGNGKGSGLICRPAVAAELIQAAKAGGLPVSVKTRLGYTDVDEWREWLTHILKQDIANLSIHLRTRAEMSKVDAHWELIPEIKKLRDEVAPDTLLTINGDIPDRQTGLKLAEQYGVDGIMIGRGIFTNPFAFEKEPKEHSSKELLDLLRLHLDLHDEYSKEEARPYKPLPRFFKIYLRGFRGASELRNQCMNTKSTDEVRALLDDFERKYLDGIE | not soluble
2 | MSLAAGFAPLADIPVGPDYVIGPGDRIILNLWGSAEGTHELEVNRSGEIVLPRVGSVKVWGITFERLPEVLKTHLSKIYKNFDLNVTMGKLRVIKVYVVGEVKMPGDYNLSPLSTLINALAASGGPLKTGTLRNIKIKRGGKVVETVDLYDFFLKGDKGKDIRLQPGDTIFVPVIGRVAGIAGNVKRPAIYELKDEKNLGDLVELAEGFLPTGYLQRVQITRVDAHDKRMVADFNIDPKGAGEGHHHHHH | not soluble
3 | MGSDKIHHHHHHFDKIPTNPNLYHDVSSFSTADLTGKVQKIKLGSKFKIRSLITNKAKTPVFKLSNGRFIRASHDNVYEDIVLRRENVKGSYWLKKTFTVYQTPYVAGTKIANTKLTNYNKVHISQKAITKHGIYLKADGQGWINEKDLTVQDNRMEKVQALLTRKYNKPNYSIYVKQLKTRKTAGINEDKSMYSASVTKLPILYFIEKQIKDGRVKLTDKFKYIEQVNQFKGAYKVEGSGEMPKKADNKYYTVDSLLKAVTQHSDNVASNILGYYIAHQYDKTYQKTVLRVADVKWNMESRNVSSKTAANVMEALYSQKSPVISYLTSTEFDNTRISRDIAVPVAHKVGDAYDYKHDVAIIYADQPFILSVFTDKSSYEDISTIADDVYGILK | not soluble
4 | GGLTEICRKPVSPGCISSVSDWLISIGLPMYAGTLSTAGFSTLSQVPSLSHTCLQEAGITEERHIRKLLSAARLFKLPPGPEAM | soluble
5 | MDSSSISSLLEDLKHSDALVREQATKKLWRIWFQQKGMYGLEKIDQSQKLLDAGEITEAEVMLTQLIQEQPDFAEAWNRRAFLYYSMGEYQKSLADCQMVIQINPVHFGALHGIGLCYAALGKYAKAIKAFKRALEIQPYSLVNQKLILECTFRLSLEHHHHHH | not soluble
6 | MAHHHHHHMYDDVEVRRREEARQHTAASLIQRRWREHAERRSLEQDAAPLRGTGGNGVLLVASDAFGDVVGRRGGETDEALRPLKSDGFDELAQTVQTPEEKRRACVEEYRALLAKRKALLENNLVYQQLLSRHYAEQRRRNGEDEVAQLTTPDAEAAYWALVRQVAEERQRVAARSTALKKDLELQRQRYEPIMEEAATQERNFQQYIQELAASVRFMRSNRPIPTEAIEKYIELEAVQRSAIHASRVRYLQLKNRLLRLRRVAKGGAALSSSAPTATAAATGQDGEESNAANHHMFLIDFEQLKVENTSLNEKIEERSEEVLKLRNKVTNTIHIATHVREKLDCVRAENAELRQHVASTDEELGGARDQLAKSKRRRDAHLRANTRMKERMPLVGSRDLLMDYEKRKAVIYNYRTRLVQLTDRHKELTDSIKKEESTIVSLQHELSHYPK | not soluble
7 | MTTLEILRSGPLALVEDLGRAGLAHLGVGRSGAADRRSHTLANRLVANPDDWATVEVTFGGFSARVRGGDVDIAVTGADTDPTVNGIMVGTNSIHHVRDGQVISLGTPRAGLRTYLAVRGGVCVEPVLGSRSYDVMSAIGPSPLRAGDVLPVGEHTDDYPELDQAPVAAIEEHLVELRVVPGPRDDWLVDPDALVHTIWMASNRSDRVGMRLQGRPLQHRWPDRQLPGEGVTRGAIQVPPNGLPVILGPDHPITGSYPVVGVITDEDIDKVAQIRPGQYVRLHWARPRSRLPGQGVTQAW | soluble
8 | MRVLVLGGGVLGRAIAESLFGEFEVIVVEKDEVRVQTLAEKGLQVVQGDFSYTATLLKAHIEKADLIVITISDPEVIAKTLHVIQNNNKDAAVLLILPEDTSLEEIASIAKEKYDTDVKVDYVINPRSAIVRAVVDTIEKIGEKKNSMKLIEKLNEIKENTDTLLIVMHDNPDPDCMASASALSLIAQTVGLKTVIVYGGDITHHQNRAMVNILGMDFRKVSRGSYEIKRHSAIAIVDAQPNGNISILDDEDIAKVQIIIDHHQILQNLREKLPDNCFVDIRPEANSTSSILVEYLKSLEIPIDENLATALFYGMYIDTKKFSKLSKIDIKAIEFLSGHVDYDLLDKIEFPDISTETAEILARAILNRRIYKNVIISNVGFIANRDAIAEAADFLLRLEGITTVLVFGIVDDRIEISARTRDVRVNIGAIMKEAFGSLGSGGGHPQAGGARIPLGIFKLAKDKASLLRLVEEAITERFLEALGMREGT | not soluble
9 | GSHMNKKSFQCSNCSVTETIRWRNIRSKEGIQCNACFIYQRKYNKTRPVTAVNKYQKRKLKVQETNGVDSF | soluble
10 | YDYSNPATLFTLSDIGVSAHRYHNRLDIFTQSLENGAAQQGIEVSLLNEKGQTLTQASSDAQGHVQLENDKNAALLLARKNGQTTLLDLKLPALDLAEFNIAGAPGYSKQFFMFGPRDLYRPGETVILNGLLRDADGKALPDQPIKLDVIKPDGQVLRSVVSQPENGLYHFTWPLDSNAATGMWHIRANTGDNQYRMWDFHVEDFMPERMALNLTGEKTPLTPKDEVKFSVVGYYLYGAPANGNTLQGQLFLRPLREAVSALPGFEFGDIAA | not soluble
11 | RPRNALLLLADDGGFESGAYNNSAIATPHLDALARRSLLFRNAFTSVSSCSPSRASLLTGLPQHQNGMYGLHQDVHHFNSFDKVRSLPLLLSQAGVRTGIIGKKHVGPETVYPFDFAYTEENGSVLQVGRNITRIKLLVRKFLQTQDDRPFFLYVAFHDPHRCGHSQPQYGTFCEKFGNGESGMGRIPDWTPQAYDPLDVLVPYFVPNTPAARADLAAQYTTVGRMDQGVGLVLQELRDAGVLNDTLVIFTSDNGIPFPSGRTNLYWPGTAEPLLVSSPEHPKRWGQVSEAYVSLLDLTPTILDWFSIPYPSYAIFGSKTIHLTGRSLLPALEAEPLWATVFGSQSHHEVTMSYPMRSVQHRHFRLVHNLNFKMPFPIDQDFYVSPTFQDLLNRTTAGQPTGWYKDLRHYYYRARWELYDRSRDPHETQNLATDPRFAQLLEMLRDQLAKWQWETHDPWVCAPDGVLEEKLSPQCQPLHNEL | soluble
12 | MSLGNARMYEALRDYGDRFDTVGIFTFEVDETGTITETGTSISSMLPYIQKWPHIKWLLTIMNHGIANIFTALRNNENGAKDKFLTEIIRIMNKYPWCAGVDIDLERGGGYENKDAANALFRDIYNTVKSYDATKLVNICLPGMIGVQGSVGGENWCVYADLNDYCDTAAIMSYGMAWAGSAPGPVSPRDWLEGIYDYAVSVMSPDKIFMGLPAYGWNWRIHDTPENLGITYRGVSNTYYAAKYWMTGVYNFTGDAPPQPFIPIVAYWDDYNKVPWALPHVYDYMEGWDAVSWEYPLLKGVYNRRRYLTSYGKEQKAEFGTIYIDRNGVPDEYEGNVIITDEMTSLGDAQASAEYRFEIREAGYYDIAVQLCFPYWDKNAIIVSLDGISKTFSENRLWWPYWRRVCWLTLAKGVFLQEGTHAISISGGVPGVQFYGFRVCSGFSEYPFAGEASFMLSPRRFKDVNGVMVEPDRGFKLTFEMLRRKPDSALIWYEDFRDRNILPENYWTVLDGEWDVWQDPDSTENRPYSQLEGYGKLAWKYDGFSDIHIRARLAFPQNSSGRAGVFLGDIFCCLNYDTQRVELYQGNSLLGSYSTSFSKTVDADLRANPNMYTIEMRKRGNKVRVYSGAASTLRFTVNVTGGSGYVGYCSDNRTVCELLRLGDAWVYEPYERFDVELPDGNITSFGRLARTGVTWDDEFQVFSVNNDVEESITRSEDISMDYDFFHSQLLALSCGNDYEVKIILKDINIWISRLFLGDADGFSILYYQDVDSLVYWANEAAYRWKLRGIAIWSLGQEDMRLWEALPKQEGHHHHHH | soluble
